Data on two molecules can be found in US20250129419A1, “REAGENTS FOR LABELING BIOMOLECULES AND USES THEREOF” (Ultima Genomics, Inc., priority 2022, published 2025).

A short description of data set [1]: evaluation of dye-labeled nucleotides including guanine (sequencing assay). To be noted: lacks the hyp10 linker. The protocol:
Nucleotides including guanine or analogs thereof may perform more poorly in sequencing applications (e.g., as described herein) in base-calling accuracy. This may be related to photoinduced electron transfer from the nucleobase to a dye linked to the nucleobase, which may quench signal emitted by the dye and thus less dynamic range of signal. Accordingly, various dye-labeled nucleotides including guanine or analogs thereof are prepared and evaluated as provided herein. Examples of such dye-labeled nucleotides include:
Several of the structures shown above include the hyp10 linker which includes the sequence Gly-Hyp-Hyp-Hyp-Hyp-Hyp-Hyp-Hyp-Hyp-Hyp-Hyp from the N-terminal end. […] The remaining dye-labeled nucleotides are evaluated in a sequencing assay, as described herein. […] Additional structures including different numbers of hydroxyprolines, including hyp20 and hyp30 moieties, may also be incorporated into fluorescent labeling reagents.

Data set [2] has as its target bovine serum albumin (BSA) (Bos taurus, UniProt P02769). Kind of data set: fluorescence of BSA labeled with different ATTO 532 labeling moieties. The following applies: BSA labeled with ATTO 532, FIG. 16. The text has this: The effect of functional separation between an optically detectable moiety (e.g., fluorescent dye) and a substrate was investigated using bovine serum albumin (BSA). BSA was fluorescently labeled with ATTO 532 according to the following schemes: in the absence of a linker providing separation between the BSA and ATTO 532 moieties (“Atto532”), using PEG16 as a linker to provide separation between the BSA and ATTO 532 moieties (“Atto532-PEG16”), using a hyp10 moiety to provide separation between the BSA and ATTO 532 moieties (“Atto532-hyp10”), and using a hyp30 moiety to provide separation between the BSA and ATTO 532 moieties (“Atto532-hyp30”). Labeled BSA was purified from free dye using Millipore centrifugal filters.

Chain of bovine serum albumin (BSA) (P02769 25-607): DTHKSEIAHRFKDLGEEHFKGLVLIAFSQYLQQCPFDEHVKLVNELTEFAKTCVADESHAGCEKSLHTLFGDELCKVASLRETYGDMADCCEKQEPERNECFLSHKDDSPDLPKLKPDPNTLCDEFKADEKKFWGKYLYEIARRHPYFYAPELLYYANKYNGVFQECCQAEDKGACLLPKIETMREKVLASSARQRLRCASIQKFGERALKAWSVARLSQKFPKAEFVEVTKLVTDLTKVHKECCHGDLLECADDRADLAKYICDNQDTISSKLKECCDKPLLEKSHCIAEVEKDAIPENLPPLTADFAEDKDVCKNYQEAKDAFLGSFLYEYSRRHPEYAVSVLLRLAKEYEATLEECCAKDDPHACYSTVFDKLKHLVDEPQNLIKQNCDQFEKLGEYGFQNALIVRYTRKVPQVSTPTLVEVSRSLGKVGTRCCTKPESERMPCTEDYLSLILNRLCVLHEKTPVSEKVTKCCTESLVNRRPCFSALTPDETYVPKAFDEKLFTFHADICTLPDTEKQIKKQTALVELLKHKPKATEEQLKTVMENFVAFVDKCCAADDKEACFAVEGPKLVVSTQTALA

Regarding `CCN1CCCc2cc3c(cc21)C(C)(C)C1=CC(=[N+](C)C)C=CC1=C3c1ccccc1C(=O)N(C)CCCC(=O)NC(CS(=O)(=O)[O-])C(=O)NCCSSCCC(=O)NCC#Cc1cn([C@H]2C[C@@H](O)[C@@H](COP(=O)(O)OP(=O)(O)OP(=O)(O)O)O2)c2nc(N)[nH]c(=O)c12` (some centres unmarked) [G4], the quenching entry in data set [1] was “highly quenched”.
As to “Atto532-PEG16: BSA labeled with ATTO 532 using PEG16 as a linker [reference compound]”, the “self-quenching on BSA protein” value in data set [2] is given as “did not improve quenching over ATTO 532 alone”.
